{"source": "paper PMC10033409", "about": "“Autoregulation of GPCR signalling through the third intracellular loop” (Nature, 2023)", "binders": {"B1": {"name": "Nanobody Nb6B9 (Nb6B9-2×GSG-SNAP tag-Flag-2×GSG-6×His) (VHH)", "VHH": "QVQLQESGGGLVQAGGSLRLSCAASGSIFALNIMGWYRQAPGKQRELVAAIHSGGTTNYANSVKGRFTISRDNAANTVYLQMNSLKPEDTAVYYCNVKDFGAIIYDYDYWGQGTQVTVSS", "notes": "Cloned into a pBiex1 backbone; source: E. coli JM109, purified (Ni-NTA, Superdex 200 gel filtration)"}}, "target": "T1, β2 adrenergic receptor (β2AR), wild type, receptor part of the β2AR–G peptide SPASM FRET sensor (human, UniProt P07550)", "T1 construct": "β2 adrenergic receptor (β2AR), human; One polypeptide: Receptor-4×GSG-mCitrine-4×GSG-10 nm ER/K linker-4×GSG-mCerulean-4×GSG-G peptide; the receptor and the G peptide (m5 or m6) are tethered on the same chain; also called WT; wild-type β2AR–Gs peptide sensor; source: HEK 293T Flp-In T-Rex cells, transfected, crude membrane extracts; not shown: mCitrine, C-terminal, kept", "experiment": "FRET or BRET; ∆FRET assay of β2AR SPASM sensors in membrane extracts; purified Nb6B9 added to quench the agonist-induced change in FRET", "conditions": "one partner purified"}
{"binder": "B1", "values": [{"measurement": "binding result", "result": "binds"}]}
